From patent US20160166636A1
Square brackets hold non-standard residues; d marks the D form. Ends that are not written are not given here. Met(O) = CS(=O)CC[C@H](N)C(=O)O; pS = N[C@@H](COP(=O)(O)O)C(=O)O

How the values were obtained:
[1] = biological target: Recombinant bovine HSC70 (Stressgen) (bovine) (UniProt P19120); assay: SPR Biacore 3000, HSC70 immobilised, peptide analyte at 25 uM, 1:1 Langmuir fit
[2] = biological target: Recombinant bovine HSC70 (Stressgen) (bovine) (UniProt P19120); assay: SPR Biacore 3000, HSC70 immobilised, peptide analyte at 1.56 uM, 1:1 Langmuir fit
[3] = biological target: Recombinant bovine HSC70 (Stressgen) (bovine) (UniProt P19120); assay: SPR Biacore 3000, HSC70 immobilised, peptide analyte at 12.5 uM, 1:1 Langmuir fit
[4] = biological target: Recombinant bovine HSC70 (Stressgen) (bovine) (UniProt P19120); assay: SPR Biacore 3000, HSC70 immobilised, peptide analyte at 3.12 uM, 1:1 Langmuir fit
[5] = biological target: Recombinant bovine HSC70 (Stressgen) (bovine) (UniProt P19120); assay: SPR Biacore 3000, HSC70 immobilised, peptide analyte at 6.25 uM, 1:1 Langmuir fit
[6] = biological target: Recombinant bovine HSC70 (Stressgen) (bovine) (UniProt P19120); assay: SPR Biacore 3000, HSC70 immobilised on CM5, peptide as analyte 1.56-25 uM, 1:1 Langmuir global fit, 25 C

Sequence of Recombinant bovine HSC70 (Stressgen) (bovine) (P19120 whole entry): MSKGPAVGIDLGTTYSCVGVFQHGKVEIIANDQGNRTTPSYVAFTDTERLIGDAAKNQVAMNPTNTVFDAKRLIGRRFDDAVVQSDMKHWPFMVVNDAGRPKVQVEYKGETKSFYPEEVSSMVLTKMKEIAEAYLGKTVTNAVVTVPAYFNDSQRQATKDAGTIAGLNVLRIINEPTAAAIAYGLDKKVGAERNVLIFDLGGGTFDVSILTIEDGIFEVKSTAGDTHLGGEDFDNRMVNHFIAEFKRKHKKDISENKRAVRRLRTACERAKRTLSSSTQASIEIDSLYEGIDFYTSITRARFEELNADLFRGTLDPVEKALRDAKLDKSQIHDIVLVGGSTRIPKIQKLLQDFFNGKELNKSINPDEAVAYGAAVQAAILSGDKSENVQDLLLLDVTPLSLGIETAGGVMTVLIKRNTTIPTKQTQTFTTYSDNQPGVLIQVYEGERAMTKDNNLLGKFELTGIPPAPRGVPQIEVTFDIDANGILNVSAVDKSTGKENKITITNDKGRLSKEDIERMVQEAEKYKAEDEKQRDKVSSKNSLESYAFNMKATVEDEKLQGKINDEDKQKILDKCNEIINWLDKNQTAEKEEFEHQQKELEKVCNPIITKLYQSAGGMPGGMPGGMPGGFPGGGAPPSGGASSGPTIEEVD

| Binder | Ka [1] [M⁻¹] | Kd [1] [µM] | Req [1] [RU] | kobs [1] [s⁻¹] | koff [1] [s⁻¹] | Ka [2] [M⁻¹] | Kd [2] [µM] | Req [2] [RU] | kobs [2] [s⁻¹] | koff [2] [s⁻¹] | Ka [3] [M⁻¹] | Kd [3] [µM] | Req [3] [RU] | kobs [3] [s⁻¹] | koff [3] [s⁻¹] | Ka [4] [M⁻¹] | Kd [4] [µM] | Req [4] [RU] | kobs [4] [s⁻¹] | koff [4] [s⁻¹] | other results |
| --- | --- | --- | --- | --- | --- | --- | --- | --- | --- | --- | --- | --- | --- | --- | --- | --- | --- | --- | --- | --- | --- |
| RIHMVYSKR[pS]GKPRGYAFIEY [P140 peptide (peptide consisting of SEQ ID NO: 1 in which serine at position 10 is phosphorylated)] | 144000 | 6.94 | 65.2 | 0.0144 | 0.00312 | 144000 | 6.94 | 15.3 | 0.00382 | 0.00312 | 144000 | 6.94 | 53.6 | 0.00874 | 0.00312 | 144000 | 6.94 | 25.8 | 0.00452 | 0.00312 | Ka [5]: 144000 M⁻¹; Kd [5]: 6.94 µM; Req [5]: 39.5 RU; kobs [5]: 0.00593 s⁻¹; koff [5]: 0.00312 s⁻¹; kon [6]: 450 M⁻¹ s⁻¹ |
| RIH[Met(O)]VYSKR[pS]GKPRGYAFIEY | 524000 | 1.91 | 36.3 | 0.031 | 0.0022 | 524000 | 1.91 | 17.6 | 0.004 | 0.0022 | 524000 | 1.91 | 33.9 | 0.0166 | 0.0022 | 524000 | 1.91 | 24.2 | 0.0058 | 0.0022 | Ka [5]: 524000 M⁻¹; Kd [5]: 1.91 µM; Req [5]: 29.9 RU; kobs [5]: 0.0094 s⁻¹; koff [5]: 0.0022 s⁻¹; kon [6]: 1150 M⁻¹ s⁻¹ |
